{
  "source": "patent US20100120665A1",
  "assay_in_all_cases": "cell-based or functional assay",
  "key": {"[1]": {"target": "human complement factor D (human) (UniProt P00746)", "sequence (P00746 26-253 limits assumed)": "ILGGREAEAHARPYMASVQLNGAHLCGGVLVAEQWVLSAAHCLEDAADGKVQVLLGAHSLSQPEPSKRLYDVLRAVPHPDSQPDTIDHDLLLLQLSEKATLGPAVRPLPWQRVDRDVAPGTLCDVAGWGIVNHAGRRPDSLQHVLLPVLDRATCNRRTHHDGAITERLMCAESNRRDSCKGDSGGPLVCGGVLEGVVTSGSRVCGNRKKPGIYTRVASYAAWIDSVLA"}, "[2]": {"target": "mouse factor B (endogenous, in diluted whole mouse serum) (mouse) (UniProt P04186)", "sequence (P04186 23-761)": "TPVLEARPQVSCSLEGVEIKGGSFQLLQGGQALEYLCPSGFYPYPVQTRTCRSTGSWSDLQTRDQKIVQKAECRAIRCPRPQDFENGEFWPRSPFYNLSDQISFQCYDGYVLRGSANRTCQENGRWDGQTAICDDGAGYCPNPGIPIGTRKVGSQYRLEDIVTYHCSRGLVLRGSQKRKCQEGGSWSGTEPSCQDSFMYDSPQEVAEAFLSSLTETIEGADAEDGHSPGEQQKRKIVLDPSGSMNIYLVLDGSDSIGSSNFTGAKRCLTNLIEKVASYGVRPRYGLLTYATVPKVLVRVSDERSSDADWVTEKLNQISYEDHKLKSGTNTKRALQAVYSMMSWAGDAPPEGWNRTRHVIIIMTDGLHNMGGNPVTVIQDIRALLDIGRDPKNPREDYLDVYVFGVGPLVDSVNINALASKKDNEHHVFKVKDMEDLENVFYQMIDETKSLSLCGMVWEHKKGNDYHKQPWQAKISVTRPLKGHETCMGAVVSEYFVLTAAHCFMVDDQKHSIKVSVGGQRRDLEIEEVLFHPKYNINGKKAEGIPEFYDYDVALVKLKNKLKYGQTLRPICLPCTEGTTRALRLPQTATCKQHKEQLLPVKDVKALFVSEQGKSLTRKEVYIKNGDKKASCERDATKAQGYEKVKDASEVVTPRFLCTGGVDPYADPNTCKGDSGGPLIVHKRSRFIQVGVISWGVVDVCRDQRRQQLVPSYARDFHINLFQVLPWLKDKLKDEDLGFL"}, "[3]": {"target": "purified human factor B protein (Quidel, Catalog# A408) (human) (UniProt P00751)", "sequence (P00751 26-764)": "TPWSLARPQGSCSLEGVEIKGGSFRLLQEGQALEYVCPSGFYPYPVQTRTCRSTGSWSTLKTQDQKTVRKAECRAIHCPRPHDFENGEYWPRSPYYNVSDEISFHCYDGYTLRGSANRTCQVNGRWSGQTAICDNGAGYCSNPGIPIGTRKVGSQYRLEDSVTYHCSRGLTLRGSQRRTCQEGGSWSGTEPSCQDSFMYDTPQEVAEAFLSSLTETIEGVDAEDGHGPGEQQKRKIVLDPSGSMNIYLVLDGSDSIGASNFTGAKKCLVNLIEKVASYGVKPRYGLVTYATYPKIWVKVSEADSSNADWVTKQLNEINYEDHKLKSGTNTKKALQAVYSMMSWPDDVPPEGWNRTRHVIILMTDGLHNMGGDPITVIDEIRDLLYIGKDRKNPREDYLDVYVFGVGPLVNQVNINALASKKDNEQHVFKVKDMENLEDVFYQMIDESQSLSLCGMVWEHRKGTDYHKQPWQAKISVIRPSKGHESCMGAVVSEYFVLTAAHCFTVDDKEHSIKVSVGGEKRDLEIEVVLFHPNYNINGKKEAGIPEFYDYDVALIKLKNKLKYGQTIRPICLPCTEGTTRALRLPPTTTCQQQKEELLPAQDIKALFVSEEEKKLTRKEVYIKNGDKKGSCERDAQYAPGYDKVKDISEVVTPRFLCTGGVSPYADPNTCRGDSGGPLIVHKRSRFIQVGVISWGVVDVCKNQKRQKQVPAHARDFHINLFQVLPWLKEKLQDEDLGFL"}},
  "data": [
    {"substance": "isotype matched mouse control IgG (eBioscience, Catalog# 14-4732) (antibody)", "values": [
      {"measurement": "hemolysis OD 405 nm; Control IgG 5 ng + Purified hfB protein 0.5 ug", "setting": "[1]", "result": 0.428, "unit": "OD 405 nm"},
      {"measurement": "hemolysis OD 405 nm; Control IgG 10 ng + Purified hfB protein 0.5 ug", "setting": "[1]", "result": 0.361, "unit": "OD 405 nm"},
      {"measurement": "hemolysis OD 405 nm; Control IgG 20 ng + Purified hfB protein 0.5 ug", "setting": "[1]", "result": 0.441, "unit": "OD 405 nm"},
      {"measurement": "hemolysis OD 405 nm; Control IgG 30 ng + Purified hfB protein 0.5 ug", "setting": "[1]", "result": 0.392, "unit": "OD 405 nm"},
      {"measurement": "hemolysis OD 405 nm; Control IgG 40 ng + Purified hfB protein 0.5 ug", "setting": "[1]", "result": 0.426, "unit": "OD 405 nm"},
      {"measurement": "hemolysis OD 405 nm; Control IgG 50 ng + Purified hfB protein 0.5 ug", "setting": "[1]", "result": 0.43, "unit": "OD 405 nm"},
      {"measurement": "hemolysis OD 405 nm; Control IgG 60 ng + Purified hfB protein 0.5 ug", "setting": "[1]", "result": 0.416, "unit": "OD 405 nm"},
      {"measurement": "hemolysis OD 405 nm; Control IgG 70 ng + Purified hfB protein 0.5 ug", "setting": "[1]", "result": 0.395, "unit": "OD 405 nm"},
      {"measurement": "hemolysis OD 405 nm; Control IgG 80 ng + Purified hfB protein 0.5 ug", "setting": "[1]", "result": 0.387, "unit": "OD 405 nm"},
      {"measurement": "hemolysis OD 405 nm; Control IgG 90 ng + Purified hfB protein 0.5 ug", "setting": "[1]", "result": 0.347, "unit": "OD 405 nm"},
      {"measurement": "hemolysis OD 405 nm; Control IgG 100 ng + Purified hfB protein 0.5 ug", "setting": "[1]", "result": 0.397, "unit": "OD 405 nm"},
      {"measurement": "hemolysis OD 405 nm; Control IgG 150 ng + Purified hfB protein 0.5 ug", "setting": "[1]", "result": 0.426, "unit": "OD 405 nm"},
      {"measurement": "hemolysis OD 405 nm; Control IgG 200 ng + Purified hfB protein 0.5 ug", "setting": "[1]", "result": 0.347, "unit": "OD 405 nm"},
      {"measurement": "hemolysis OD 405 nm; Control IgG 400 ng + Purified hfB protein 0.5 ug", "setting": "[1]", "result": 0.506, "unit": "OD 405 nm"},
      {"measurement": "hemolysis OD 405 nm; Control IgG 800 ng + Purified hfB protein 0.5 ug", "setting": "[1]", "result": 0.538, "unit": "OD 405 nm"},
      {"measurement": "hemolysis OD 405 nm; Control IgG 1600 ng + Purified hfB protein 0.5 ug", "setting": "[1]", "result": 0.618, "unit": "OD 405 nm"},
      {"measurement": "hemolysis OD 405 nm; Control IgG 2400 ng + Purified hfB protein 0.5 ug", "setting": "[1]", "result": 0.588, "unit": "OD 405 nm"}
    ]},
    {"substance": "monoclonal anti-human factor D antibody (Affinity Bioreagents, Catalog# GAU008-01-02)", "values": [
      {"measurement": "hemolysis OD 405 nm; Anti-hfD mAb 5 ng + Purified hfB protein 0.5 ug", "setting": "[1]", "result": 0.373, "unit": "OD 405 nm"},
      {"measurement": "hemolysis OD 405 nm; Anti-hfD mAb 10 ng + Purified hfB protein 0.5 ug", "setting": "[1]", "result": 0.432, "unit": "OD 405 nm"},
      {"measurement": "hemolysis OD 405 nm; Anti-hfD mAb 20 ng + Purified hfB protein 0.5 ug", "setting": "[1]", "result": 0.369, "unit": "OD 405 nm"},
      {"measurement": "hemolysis OD 405 nm; Anti-hfD mAb 30 ng + Purified hfB protein 0.5 ug", "setting": "[1]", "result": 0.235, "unit": "OD 405 nm"},
      {"measurement": "hemolysis OD 405 nm; Anti-hfD mAb 40 ng + Purified hfB protein 0.5 ug", "setting": "[1]", "result": 0.227, "unit": "OD 405 nm"},
      {"measurement": "hemolysis OD 405 nm; Anti-hfD mAb 50 ng + Purified hfB protein 0.5 ug", "setting": "[1]", "result": 0.165, "unit": "OD 405 nm"},
      {"measurement": "hemolysis OD 405 nm; Anti-hfD mAb 60 ng + Purified hfB protein 0.5 ug", "setting": "[1]", "result": 0.126, "unit": "OD 405 nm"},
      {"measurement": "hemolysis OD 405 nm; Anti-hfD mAb 70 ng + Purified hfB protein 0.5 ug", "setting": "[1]", "result": 0.103, "unit": "OD 405 nm"},
      {"measurement": "hemolysis OD 405 nm; Anti-hfD mAb 80 ng + Purified hfB protein 0.5 ug", "setting": "[1]", "result": 0.078, "unit": "OD 405 nm"},
      {"measurement": "hemolysis OD 405 nm; Anti-hfD mAb 90 ng + Purified hfB protein 0.5 ug", "setting": "[1]", "result": 0.058, "unit": "OD 405 nm"},
      {"measurement": "hemolysis OD 405 nm; Anti-hfD mAb 100 ng + Purified hfB protein 0.5 ug", "setting": "[1]", "result": 0.061, "unit": "OD 405 nm"},
      {"measurement": "hemolysis OD 405 nm; Anti-hfD mAb 150 ng + Purified hfB protein 0.5 ug", "setting": "[1]", "result": 0.035, "unit": "OD 405 nm"},
      {"measurement": "hemolysis OD 405 nm; Anti-hfD mAb 200 ng + Purified hfB protein 0.5 ug", "setting": "[1]", "result": 0.029, "unit": "OD 405 nm"},
      {"measurement": "hemolysis OD 405 nm; Anti-hfD mAb 400 ng + Purified hfB protein 0.5 ug", "setting": "[1]", "result": 0.022, "unit": "OD 405 nm"},
      {"measurement": "hemolysis OD 405 nm; Anti-hfD mAb 800 ng + Purified hfB protein 0.5 ug", "setting": "[1]", "result": 0.015, "unit": "OD 405 nm"},
      {"measurement": "hemolysis OD 405 nm; Anti-hfD mAb 1600 ng + Purified hfB protein 0.5 ug", "setting": "[1]", "result": 0.014, "unit": "OD 405 nm"},
      {"measurement": "hemolysis OD 405 nm; Anti-hfD mAb 2400 ng + Purified hfB protein 0.5 ug", "setting": "[1]", "result": 0.049, "unit": "OD 405 nm"}
    ]},
    {"substance": "mouse monoclonal antibody against human factor B (Quidel, Catalog# A227)", "values": [
      {"measurement": "hemolysis OD 405 nm; Anti hfB mAb 0.4 ug + Mouse serum 50 ul (1:6 Diluted)", "setting": "[2]", "result": 0.074, "unit": "OD 405 nm"},
      {"measurement": "hemolysis OD 405 nm; Anti hfB mAb 0.4 ug + Purified hfB Protein 0.5 ug", "setting": "[3]", "result": 0.051, "unit": "OD 405 nm"},
      {"measurement": "hemolysis OD 405 nm; Anti hfB mAb 0.8 ug + Purified hfB Protein 0.5 ug", "setting": "[3]", "result": 0, "unit": "OD 405 nm"}
    ]}
  ]
}
